Source: patent EP1007090B1 (Biogen Idec Inc., dated 2009)
Like-named read-outs stand apart in the source and are kept apart here.

Legend:
B7.1/Ig fusion protein [1] = target: T1, B7.1/Ig fusion protein (human, UniProt P33681 35-242, limits assumed); assay: Scatchard analysis, binding to B7-Ig coated plates
T1 construct: Secreted by CHO cells; also called B7-Ig; 125I-B7.1Ig; not shown: human immunoglobulin CH2 and CH3
T1 sequence (looked up): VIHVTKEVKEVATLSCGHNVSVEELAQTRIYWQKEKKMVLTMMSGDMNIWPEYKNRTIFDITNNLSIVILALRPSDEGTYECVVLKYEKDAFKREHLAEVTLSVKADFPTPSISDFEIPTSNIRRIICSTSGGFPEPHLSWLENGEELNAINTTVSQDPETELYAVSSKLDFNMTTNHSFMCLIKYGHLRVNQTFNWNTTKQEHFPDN

B7.1/Ig fusion protein [2] = target: T1, B7.1/Ig fusion protein; assay: Scatchard analysis, binding to B7-Ig coated plates; remark: listed apart in the source

B1: monkey monoclonal antibody 7B6 (antibody, V domains shown)
VH: EVQLVESGGGLVQPGGSLRVSCAVSGFTFSDHYMYWFRQAPGKGPEWVGFIRNKPNGGTTEYAASVKDRFTISRDDSKSIAYLQMSSLKIEDTAVYYCTTSYISHCRGGVCYGGYFEFWGQGALVTVSS
VL: EVVMTQSPLSLPITPGEPASISCRSSQSLKHSNGDTFLSWYQQKPGQPPRLLIYKVSNRDSGVPDRFSGSGAGTDFTLKISAVEAEDVGVYFCGQGTRTPPTFGGGTKVEIK
Q: For B1, which Kd (B7.1/Ig fusion protein [1]) is on record?
A: ~0.0107 µM

Q: What about the Kd (B7.1/Ig fusion protein [2]) of the same binder?
A: ~0.0107 µM
